Test results from patent US20200397917, “ENGINEERED DNA BINDING PROTEINS” (Encoded Therapeutics, Inc., published 2020).

Legend:
ZF DBD-CITED2 = ZF DBD-CITED2 (synthetic); assay: cell_activity; versus reporter alone; settings: tags: NLS; CITED2
Protocol: (§1) HEK293 cells were cultured per standard methods, and co-transfected (FuGene HD, Promega) with 1.5 ug of a reporter plasmid consisting of EGFP under the control of a tetracycline-responsive element (TRE) tight promoter, and 1.5 ug of each tested activator, or empty vector control (pUC57). 48h following transfection, cells were imaged using an epifluorescent microscope for GFP expression. The cells were collected and RNA was isolated (Qiagen RNeasy Mini kit), and DNase treated. RNA (3 ug) was reverse transcribed using OligoDT primers (Superscript IV, Invitrogen). cDNA samples were analyzed by qPCR using Phusion Polymerase (New England Biolabs) and SYBR Green I: (30s at 98° C., 40×[10 sec at 98° C., 15 sec at 65° C., 15 sec at 72° C.]). Primers against EGFP (5′-[…]-3′ (SEQ ID NO: 369); 5′-[…]-3′ (SEQ ID NO: 370)) were used to quantify levels of reporter-driven EGFP transcript, and relative levels of EGFP expression were determined by the delta-delta Ct method with GAPDH as a reference gene (5′-[…]-3′ (SEQ ID NO: 192); 5′-[…]-3′ (SEQ ID NO: 193)).
(§2) Data are presented as fold changes relative to the control condition.

ZF DBD-CITED4 = ZF DBD-CITED4 (synthetic); assay: cell_activity; versus reporter alone; settings: tags: NLS; CITED4
ZF DBD-CITED4 (synthetic), sequence (chain, as listed by the source): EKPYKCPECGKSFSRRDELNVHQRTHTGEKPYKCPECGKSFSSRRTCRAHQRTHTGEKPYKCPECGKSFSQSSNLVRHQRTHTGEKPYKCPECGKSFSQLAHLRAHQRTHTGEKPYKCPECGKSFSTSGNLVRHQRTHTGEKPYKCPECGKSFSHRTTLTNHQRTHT
Protocol: as §1, §2

[1] = molecular target: EGR1-based eTF, synthetic 6-ZF DBD (synthetic); assay: cell_activity; EGFP reporter
EGR1-based eTF, synthetic 6-ZF DBD (synthetic), sequence (chain, as listed by the source): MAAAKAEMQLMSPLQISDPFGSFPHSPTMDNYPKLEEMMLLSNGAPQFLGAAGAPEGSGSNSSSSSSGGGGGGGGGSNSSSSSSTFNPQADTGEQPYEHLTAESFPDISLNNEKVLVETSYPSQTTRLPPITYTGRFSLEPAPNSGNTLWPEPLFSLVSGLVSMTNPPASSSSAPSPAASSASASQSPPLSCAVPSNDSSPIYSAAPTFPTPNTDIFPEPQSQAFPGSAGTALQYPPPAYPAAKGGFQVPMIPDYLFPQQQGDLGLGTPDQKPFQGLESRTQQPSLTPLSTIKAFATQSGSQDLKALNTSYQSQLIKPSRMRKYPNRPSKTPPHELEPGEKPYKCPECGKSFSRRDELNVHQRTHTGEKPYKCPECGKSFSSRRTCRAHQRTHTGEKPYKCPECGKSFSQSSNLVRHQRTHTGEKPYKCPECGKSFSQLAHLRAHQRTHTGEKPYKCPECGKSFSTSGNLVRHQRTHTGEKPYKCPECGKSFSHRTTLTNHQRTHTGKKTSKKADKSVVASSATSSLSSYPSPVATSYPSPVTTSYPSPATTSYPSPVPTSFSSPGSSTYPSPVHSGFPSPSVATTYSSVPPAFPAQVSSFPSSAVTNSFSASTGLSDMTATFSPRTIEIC
Protocol: as §1, §2

[2] = molecular target: EGR1-based eTF, duplicated 6 ZF (TRE) (synthetic); assay: cell_activity; EGFP reporter
EGR1-based eTF, duplicated 6 ZF (TRE) (synthetic), sequence (chain, as listed by the source): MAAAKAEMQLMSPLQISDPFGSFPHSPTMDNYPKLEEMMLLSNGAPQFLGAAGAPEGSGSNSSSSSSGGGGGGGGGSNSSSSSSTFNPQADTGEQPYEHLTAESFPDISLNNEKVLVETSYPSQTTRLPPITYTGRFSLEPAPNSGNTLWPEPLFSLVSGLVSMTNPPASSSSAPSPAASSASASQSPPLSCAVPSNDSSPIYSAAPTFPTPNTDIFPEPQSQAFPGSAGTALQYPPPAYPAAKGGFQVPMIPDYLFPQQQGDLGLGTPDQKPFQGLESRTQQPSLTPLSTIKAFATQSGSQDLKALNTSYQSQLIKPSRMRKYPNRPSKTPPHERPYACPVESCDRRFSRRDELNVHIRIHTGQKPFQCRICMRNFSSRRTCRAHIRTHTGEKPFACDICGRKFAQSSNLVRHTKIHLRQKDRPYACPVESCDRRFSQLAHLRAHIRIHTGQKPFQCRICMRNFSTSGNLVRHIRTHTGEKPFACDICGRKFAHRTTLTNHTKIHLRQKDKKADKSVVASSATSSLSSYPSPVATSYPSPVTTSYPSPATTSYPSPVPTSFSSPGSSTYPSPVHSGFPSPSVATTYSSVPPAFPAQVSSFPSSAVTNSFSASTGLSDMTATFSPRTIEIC
Protocol: as §1, §2

ZF DBD-VP64 = ZF DBD-VP64 (synthetic); assay: cell_activity; EGFP reporter; about 40-fold in FIG. 33B; settings: tags: NLS
Protocol: as §1, §2

[3] = molecular target: EGR3-based eTF, 6 ZF (TRE) (synthetic); assay: cell_activity; versus control SEQ 187
EGR3-based eTF, 6 ZF (TRE) (synthetic), sequence (chain, as listed by the source): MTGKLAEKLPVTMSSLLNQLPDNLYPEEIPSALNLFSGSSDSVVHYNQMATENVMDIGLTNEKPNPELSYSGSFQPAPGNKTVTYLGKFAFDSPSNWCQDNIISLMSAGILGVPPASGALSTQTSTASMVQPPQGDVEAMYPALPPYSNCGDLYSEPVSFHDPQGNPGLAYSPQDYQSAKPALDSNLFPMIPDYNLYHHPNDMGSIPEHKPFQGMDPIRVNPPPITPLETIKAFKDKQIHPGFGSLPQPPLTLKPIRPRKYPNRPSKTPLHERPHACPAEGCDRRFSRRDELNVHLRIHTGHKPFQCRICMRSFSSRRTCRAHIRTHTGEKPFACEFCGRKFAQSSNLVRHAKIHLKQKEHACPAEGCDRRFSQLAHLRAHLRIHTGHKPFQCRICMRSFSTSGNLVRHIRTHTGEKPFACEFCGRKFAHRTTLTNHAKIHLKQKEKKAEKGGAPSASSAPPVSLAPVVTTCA
Protocol: as §1, §2

[4] = molecular target: EGR1-based eTF, 9 ZF (SCN1A) (synthetic); assay: cell_activity; endogenous SCN1A, HEK293
EGR1-based eTF, 9 ZF (SCN1A) (synthetic), sequence (chain, as listed by the source): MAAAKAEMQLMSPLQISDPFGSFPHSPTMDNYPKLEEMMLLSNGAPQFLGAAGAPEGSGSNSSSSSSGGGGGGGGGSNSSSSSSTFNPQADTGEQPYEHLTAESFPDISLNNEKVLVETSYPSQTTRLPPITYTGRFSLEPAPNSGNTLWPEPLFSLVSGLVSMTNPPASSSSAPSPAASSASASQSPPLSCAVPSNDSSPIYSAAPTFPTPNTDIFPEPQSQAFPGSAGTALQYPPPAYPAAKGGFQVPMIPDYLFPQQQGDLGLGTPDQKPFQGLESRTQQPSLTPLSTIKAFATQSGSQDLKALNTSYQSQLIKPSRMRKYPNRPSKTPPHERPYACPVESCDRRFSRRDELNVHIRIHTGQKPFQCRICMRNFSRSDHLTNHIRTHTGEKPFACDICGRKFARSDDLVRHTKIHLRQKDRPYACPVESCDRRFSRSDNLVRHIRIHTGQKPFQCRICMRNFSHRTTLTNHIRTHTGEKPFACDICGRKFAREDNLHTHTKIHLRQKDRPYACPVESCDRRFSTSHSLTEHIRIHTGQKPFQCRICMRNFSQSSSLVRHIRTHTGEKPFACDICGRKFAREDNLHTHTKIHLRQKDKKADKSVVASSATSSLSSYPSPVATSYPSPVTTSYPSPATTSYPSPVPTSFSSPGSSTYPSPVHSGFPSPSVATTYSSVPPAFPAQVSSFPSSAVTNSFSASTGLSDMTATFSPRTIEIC
Protocol: (§3) HEK293 cells were cultured per standard methods, and transfected (FuGene HD, Promega) with 3 ug of each tested activator, or an EGFP control. 48h following transfection, cells were collected and RNA was isolated (Qiagen RNeasy Mini kit), and DNase treated. RNA (3 ug) was reverse transcribed using OligoDT primers (Superscript IV, Invitrogen). cDNA samples were analyzed by qPCR using Phusion Polymerase (New England Biolabs) and SYBR Green I: (30s at 98° C., 40×[10 sec at 98° C., 15 sec at 68° C., 15 sec at 72° C.]). Primers against human SCN1A (5′-[…]-3′ (SEQ ID NO: 190); 5′-[…]-3′ (SEQ ID NO: 191)) were used to quantify levels of reporter-driven EGFP transcript, and relative levels of EGFP expression were determined by the delta-delta Ct method with GAPDH as a reference gene (5′-[…]-3′ (SEQ ID NO: 192); 5′-[…]-3′ (SEQ ID NO: 193)). Data are presented as fold changes relative to the control condition. SEQ ID NOs: 6, 7, and 9 are eTFs derived from human EGR1 protein and are engineered to bind to a target site near or at endogenous SCN1A gene, wherein the target site is SEQ ID NOs: 35-37.

EGR1-based eTF, 3 ZF = EGR1-based eTF, 3 ZF (synthetic, UniProt P18146 SEQ:1-543); assay: cell_activity; EGFP reporter
EGR1-based eTF, 3 ZF, sequence (P18146 other isoform, or with tags, fused parts or gaps): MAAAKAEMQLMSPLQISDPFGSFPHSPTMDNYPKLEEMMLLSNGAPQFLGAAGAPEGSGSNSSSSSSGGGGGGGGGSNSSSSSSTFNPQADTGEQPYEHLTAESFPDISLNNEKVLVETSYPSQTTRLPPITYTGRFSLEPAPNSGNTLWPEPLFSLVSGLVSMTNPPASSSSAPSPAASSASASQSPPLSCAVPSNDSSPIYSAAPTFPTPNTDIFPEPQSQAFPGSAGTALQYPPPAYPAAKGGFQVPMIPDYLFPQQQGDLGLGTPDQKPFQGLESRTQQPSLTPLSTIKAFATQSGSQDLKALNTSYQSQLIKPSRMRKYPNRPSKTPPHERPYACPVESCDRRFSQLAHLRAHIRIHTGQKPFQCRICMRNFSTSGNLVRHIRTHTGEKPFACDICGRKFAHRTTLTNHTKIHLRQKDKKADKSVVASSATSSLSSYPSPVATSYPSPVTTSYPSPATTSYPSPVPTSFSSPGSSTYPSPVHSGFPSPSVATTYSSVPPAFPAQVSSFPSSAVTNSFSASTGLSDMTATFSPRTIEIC
Protocol: as §1, §2

[5] = molecular target: EGR1-based eTF, 6 ZF (SCN1A) (synthetic); assay: cell_activity; endogenous SCN1A, HEK293
EGR1-based eTF, 6 ZF (SCN1A) (synthetic), sequence (chain, as listed by the source): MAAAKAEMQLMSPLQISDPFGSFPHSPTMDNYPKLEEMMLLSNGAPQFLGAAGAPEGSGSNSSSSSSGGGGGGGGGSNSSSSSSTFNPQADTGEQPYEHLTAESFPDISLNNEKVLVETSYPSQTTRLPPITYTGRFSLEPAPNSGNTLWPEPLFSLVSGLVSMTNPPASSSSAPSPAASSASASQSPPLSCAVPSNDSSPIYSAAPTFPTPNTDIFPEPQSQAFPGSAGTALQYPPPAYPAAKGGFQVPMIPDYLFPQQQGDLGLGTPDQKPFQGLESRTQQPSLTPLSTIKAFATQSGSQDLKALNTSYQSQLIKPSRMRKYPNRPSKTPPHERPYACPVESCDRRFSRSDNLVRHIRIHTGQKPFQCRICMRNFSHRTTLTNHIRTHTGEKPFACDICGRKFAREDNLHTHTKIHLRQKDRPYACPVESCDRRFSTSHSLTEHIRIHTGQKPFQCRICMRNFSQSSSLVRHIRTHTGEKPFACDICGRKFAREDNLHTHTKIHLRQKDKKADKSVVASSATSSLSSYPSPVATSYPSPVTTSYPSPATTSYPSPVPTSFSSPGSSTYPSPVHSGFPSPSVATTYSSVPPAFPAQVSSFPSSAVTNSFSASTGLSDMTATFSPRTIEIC
Protocol: as §3

B1: TRE reporter site (dsDNA)
DNA 1: AGTGATAGAGAACGTATG
DNA 2: CATACGTTCTCTATCACT
Work on B1 yielded an activity (ZF DBD-CITED2) of ~15 fold EGFP, an activity (ZF DBD-CITED4) of ~10 fold EGFP and an activity [1] of 10 fold EGFP. For the same binder, the activity [2] was 15 fold EGFP, the activity (ZF DBD-VP64) was 70 fold EGFP and the activity [3] was ≥ 5 fold EGFP.

B2: SCN1A site 37 (dsDNA)
DNA 1: TAGGTACCATAGAGTGAGGCGAGGATG
DNA 2: CATCCTCGCCTCACTCTATGGTACCTA
For B2, the activity [4] was ~20 fold SCN1A.

B3: TRE reporter 9-nt site (dsDNA)
DNA 1: AGTGATAGA
DNA 2: TCTATCACT
B3 gave an activity (EGR1-based eTF, 3 ZF) of 3 fold EGFP.

B4: SCN1A site 36 (dsDNA)
DNA 1: TAGGTACCATAGAGTGAG
DNA 2: CTCACTCTATGGTACCTA
B4 was tested, and the activity [5] was ~7 fold SCN1A.
